± gives the standard deviation of the averaged measurements. Bounds are passed on as bounds.

The series can be described thus: total protein half-life in vivo (active degradation + dilution); higher = more stable protein.
[1] abbreviates: E. coli NCM3722 delta-clpP delta-lon delta-hslV, growth: N-lim chemostat, doubling time 6 h.
[2] abbreviates: E. coli NCM3722 delta-clpP, growth: N-lim chemostat, doubling time 6 h.
Setting [3] is: E. coli NCM3722 delta-hslV, growth: N-lim chemostat, doubling time 6 h.
[4] abbreviates: E. coli NCM3722 delta-lon, growth: N-lim chemostat, doubling time 6 h.
Setting [5] is: E. coli NCM3722 delta-smpB, growth: N-lim chemostat, doubling time 6 h.
Setting [6] is: wild type E. coli NCM3722, growth: C-lim chemostat, doubling time 3 h.
Where [7] appears, read: wild type E. coli NCM3722, growth: C-lim chemostat, doubling time 6 h.
Setting [8] is: wild type E. coli NCM3722, growth: C-lim chemostat, doubling time 12 h.
Where [9] appears, read: wild type E. coli NCM3722, growth: N-lim chemostat, doubling time 6 h.
Setting [10] is: wild type E. coli NCM3722, growth: N-lim chemostat, doubling time 12 h.
Where [11] appears, read: wild type E. coli NCM3722, growth: P-lim chemostat, doubling time 6 h.
The mark [12] stands for this setting: wild type E. coli NCM3722, growth: P-lim chemostat, doubling time 12 h.

Turning to “MSNNGSSPLVLWYNQLGMNDVDRVGGKNASLGEMITNLSGMGVSVPNGFATTADAFNQFLDQSGVNQRIYELLDKTDIDDVTQLAKAGAQIRQWIIDTPFQPELENAIREAYAQLSADDENASFAVRSSATAEDMPDASFAGQQETFLNVQGFDAVLVAVKHVFASLFNDRAISYRVHQGYDHRGVALSAGVQRMVRSDLASSGVMFSIDTESGFDQVVFITSAWGLGEMVVQGAVNPDEFYVHKPTLAANRPAIVRRTMGSKKIRMVYAPTQEHGKQVKIEDVPQEQRDIFSLTNEEVQELAKQAVQIEKHYGRPMDIEWAKDGHTGKLFIVQARPETVRSRGQVMERYTLHSQGKIIAEGRAIGHRIGAGPVKVIHDISEMNRIEPGDVLVTDMTDPDWEPIMKKASAIVTNRGGRTCHAAIIARELGIPAVVGCGDATERMKDGENVTVSCAEGDTGYVYAELLEFSVKSSSVETMPDLPLKVMMNVGNPDRAFDFACLPNEGVGLARLEFIINRMIGVHPRALLEFDDQEPQLQNEIREMMKGFDSPREFYVGRLTEGIATLGAAFYPKRVIVRLSDFKSNEYANLVGGERYEPDEENPMLGFRGAGRYVSDSFRDCFALECEAVKRVRNDMGLTNVEIMIPFVRTVDQAKAVVEELARQGLKRGENGLKIIMMCEIPSNALLAEQFLEYFDGFSIGSNDMTQLALGLDRDSGVVSELFDERNDAVKALLSMAIRAAKKQGKYVGICGQGPSDHEDFAAWLMEEGIDSLSLNPDTVVQTWLSLAELKK”, the “total protein half-life in vivo” value is, setting by setting: under setting [1], 4.83 ± 0.48 h; under setting [2], 4.47 ± 0.29 h; under setting [3], 4.6 ± 0.19 h; under setting [4], 4.853 ± 0.045 h; under setting [5], 4.21 ± 0.38 h; under setting [6], 3.08 ± 0.22 h. Besides, the “total protein half-life in vivo” value stood at 5.77 ± 0.31 h under setting [7]; 10.1 ± 1 h under setting [8]; 4.5 ± 0.17 h under setting [9]; 7.03 ± 0.19 h under setting [10]; 5.9 ± 0.38 h under setting [11]; 11.7 ± 0.34 h under setting [12].
On to “MPSFDIVSEVDLQEARNAVDNASREVESRFDFRNVEASFELNDASKTIKVLSESDFQVNQLLDILRAKLLKRGIEGSSLDVPENIVHSGKTWFVEAKLKQGIESATQKKIVKMIKDSKLKVQAQIQGDEIRVTGKSRDDLQAVMAMVRGGDLGQPFQFKNFRD [P0A8E7]”, for which the “total protein half-life in vivo” value was determined as 6.17 ± 0.16 h under setting [1]; 6.38 ± 1 h under setting [2]; 5.06 ± 0.27 h under setting [3]; 6.83 ± 0.4 h under setting [4]; 5.85 ± 0.38 h under setting [5]; 3.18 ± 0.28 h under setting [6]. The “total protein half-life in vivo” value under setting [7] amounted to 6.22 ± 1.1 h; the “total protein half-life in vivo” value under setting [8] was found to be 10.7 ± 0.25 h; the “total protein half-life in vivo” value under setting [9] came to 4.32 ± 0.57 h; the “total protein half-life in vivo” value under setting [10] is 8.82 ± 1 h; the “total protein half-life in vivo” value under setting [11] worked out at 5.06 ± 1.4 h; the “total protein half-life in vivo” value under setting [12] worked out at 12.7 ± 1.6 h.
On to “MFKKGLLALALVFSLPVFAAEHWIDVRVPEQYQQEHVQGAINIPLKEVKERIATAVPDKNDTVKVYCNAGRQSGQAKEILSEMGYTHVENAGGLKDIAMPKVKG”, for which the “total protein half-life in vivo” value worked out at 2.7 ± 0.26 h under setting [4]; 2.61 h under setting [5]; 1.97 ± 0.051 h under setting [6]; 2.89 h under setting [7]; 3.42 ± 0.39 h under setting [8]; 3.19 h under setting [12].
Regarding “MAFKIWQIGLHLQQQEAVAVAIVRGAKECFLQRWWRLPLENDIIKDGRIVDAQQLAKTLLPWSRELPQRHHIMLAFPASRTLQRSFPRPSMSLGEREQTAWLSGTMARELDMDPDSLRFDYSEDSLSPAYNVTAAQSKELATLLTLAERLRVHVSAITPDASALQRFLPFLPSHQQCLAWRDNEQWLWATRYSWGRKLAVGMTSAKELAAALSVDPESVAICGEGGFDPWEAVSVRQPPLPPPGGDFAIALGLALGKAY”, the “total protein half-life in vivo” value came to 4.83 h under setting [1]; 3.81 h under setting [2]; 2.84 h under setting [3]; 2.82 ± 0.24 h under setting [5]; 11.7 ± 1.8 h under setting [8]; 3.857 ± 0.0092 h under setting [11]. Moreover, the “total protein half-life in vivo” value under setting [12] amounted to 8.02 h.
Consider “MKIVKAEVFVTCPGRNFVTLKITTEDGITGLGDATLNGRELSVASYLQDHLCPQLIGRDAHRIEDIWQFFYKGAYWRRGPVTMSAISAVDMALWDIKAKAANMPLYQLLGGASREGVMVYCHTTGHSIDEALDDYARHQELGFKAIRVQCGIPGMKTTYGMSKGKGLAYEPATKGQWPEEQLWSTEKYLDFMPKLFDAVRNKFGFNEHLLHDMHHRLTPIEAARFGKSIEDYRMFWMEDPTPAENQECFRLIRQHTVTPIAVGEVFNSIWDCKQLIEEQLIDYIRTTLTHAGGITGMRRIADFASLYQVRTGSHGPSDLSPVCMAAALHFDLWVPNFGVQEYMGYSEQMLEVFPHNWTFDNGYMHPGDKPGLGIEFDEKLAAKYPYEPAYLPVARLEDGTLWNW”, for which the “total protein half-life in vivo” value runs as follows: under setting [1], 5.64 ± 0.3 h; under setting [6], 3.61 ± 0.2 h; under setting [7], 6.03 ± 0.18 h; under setting [8], 10.5 ± 1.8 h; under setting [11], 7.33 h; under setting [12], above 16 h.
Turning to “MKITLLVTLLFGLVFLTTVGAAERTLTPQQQRMTSCNQQATAQALKGDARKTYMSDCLKNSKSAPGEKSLTPQQQKMRECNNQATQQSLKGDDRNKFMSACLKKAA [P0AFM4]”, the “total protein half-life in vivo” value runs as follows: under setting [1], 6.55 h; under setting [2], 5.82 ± 1.1 h; under setting [8], 6.86 ± 1.4 h; under setting [11], 5.5 ± 1.8 h; under setting [12], 12.8 ± 2.9 h.
Regarding “MVKLAFPRELRLLTPSQFTFVFQQPQRAGTPQITILGRLNSLGHPRIGLTVAKKNVRRAHERNRIKRLTRESFRLRQHELPAMDFVVVAKKGVADLDNRALSEALEKLWRRHCRLARGS [P0A7Y8]”, the “total protein half-life in vivo” value came out at 5.44 h under setting [2]; 4.21 h under setting [3]; 6.46 ± 0.22 h under setting [4]; 3.76 ± 0.17 h under setting [5]; 3.11 ± 0.27 h under setting [6]; 4.82 ± 0.15 h under setting [7]. Besides, the “total protein half-life in vivo” value worked out at 8.06 h under setting [8]; 3.63 ± 0.43 h under setting [9]; 7.32 ± 2.1 h under setting [10]; 3.7 h under setting [11]; 7.12 ± 0.64 h under setting [12].

(Values after the supplement of paper PMC11246515.)
